# Measured values published in patent publication US20160264649A1.
# How the values were obtained:
# Assay in all cases: cell-based or functional assay
# [1] = target: HIV-1 ZM214 Env (HIV-1)
# [2] = target: HIV-1 ZM233 Env (HIV-1)
# [3] = target: HIV-1 PVO.4 Env (HIV-1)
# [4] = target: HIV-1 THRO.18 Env (HIV-1)
# [5] = target: HIV-1 92RW020 Env (HIV-1)
# [6] = target: HIV-1 REJ04541 Env (HIV-1)
# [7] = target: MuLV envelope (control pseudovirus)
# [8] = target: HIV-1 DU422 Env (HIV-1)
# [9] = target: HIV-1 AC10 Env (HIV-1)
# [10] = target: HIV-1 JR-CSF Env I309A (HIV-1) (UniProt P20871)
# [11] = target: HIV-1 JR-CSF Env Y318A (HIV-1) (UniProt P20871)
# [12] = target: HIV-1 JR-CSF Env (wild-type) (HIV-1) (UniProt P20871)
# [13] = target: HIV-1 JR-FL Env E168K (HIV-1)
# [14] = target: HIV-1 CAAN Env (HIV-1)
# [15] = target: HIV-1 TR0.11 Env (HIV-1)
# [16] = target: HIV-1 ZM249 Env (HIV-1)
# [17] = target: HIV-1 DU156 Env (HIV-1)
# [18] = target: HIV-1 Du172 Env (HIV-1)
# [19] = target: HIV-1 CAP45 Env (HIV-1)
# [20] = target: HIV-1 ADA Env (HIV-1)
Binder,"IC50, TZM-bl pseudovirus neutralization [1]","IC50, TZM-bl pseudovirus neutralization [2]","IC50, TZM-bl pseudovirus neutralization [3]","IC50, TZM-bl pseudovirus neutralization [4]","IC50, TZM-bl pseudovirus neutralization [5]","IC50, TZM-bl pseudovirus neutralization [6]","IC50, TZM-bl pseudovirus neutralization [7]","IC50, TZM-bl pseudovirus neutralization [8]","IC50, TZM-bl pseudovirus neutralization [9]","IC50, TZM-bl pseudovirus neutralization [10]","IC50, TZM-bl pseudovirus neutralization [11]","IC50, TZM-bl pseudovirus neutralization [12]","IC50, TZM-bl pseudovirus neutralization [13]","IC50, TZM-bl pseudovirus neutralization [14]","IC50, TZM-bl pseudovirus neutralization [15]","IC50, TZM-bl pseudovirus neutralization [16]","IC50, TZM-bl pseudovirus neutralization [17]","IC50, TZM-bl pseudovirus neutralization [18]","IC50, TZM-bl pseudovirus neutralization [19]","IC50, TZM-bl pseudovirus neutralization [20]"
"1456_A12 (PG16) (TCN-117) (antibody, V domains shown) VH: HEQLVEAGGGVVQPGGSLRLSCLASGFTFHKYGMHWVRQAPGKGLEWVALISDDGMRKYHSDSMWGRVTISRDNSKNTLYLQFSSLRVEDTAMFFCAREAGGPIWHDDVKYYDFNDGYYNYHYMDVWGKGTKVTVSS VL: QSALTQPASVSGSPGQTITISCNGTSRDVGGFDSVSWYQQSPGKAPKVMVFDVSHRPSGMSNRFSGSKSGNTASLTISGLHIEDEGDYFCSSLTDRSHRIFGGGTKLTVLG",> 25 µg/mL,< 0.01 µg/mL,10.4 µg/mL,2.08 µg/mL,0.05 µg/mL,< 0.01 µg/mL,> 25 µg/mL,0.36 µg/mL,< 0.01 µg/mL,> 1 µg/mL,> 1 µg/mL,0.001 µg/mL,0.003 µg/mL,10.6 µg/mL,3.05 µg/mL,< 0.01 µg/mL,< 0.01 µg/mL,< 0.01 µg/mL,< 0.01 µg/mL,0.005 µg/mL
"1469_M23 (PG16) (TCN-118) (antibody, V domains shown) VH: QEKLVESGGGVVQPGGSLRLSCLASGFTFHKYGMHWVRQAPGKGLEWVALISDDGMRKYHSDSMWGRVTISRDNSKNTLYLQFSSLKVEDTAMFFCAREAGGPIWHDDVKYYDFNDGYYNYHYMDVWGKGTTVTVSS VL: QSALTQPASVSGSPGQTITISCNGTRSDVGGFDSVSWYQQSPGRAPKVMVFDVSHRPSGISNRFSGSKSGNTASLTISGLHIEDEGDYFCSSLTDRSHRIFGGGTKLTVLG",> 25 µg/mL,< 0.01 µg/mL,21.2 µg/mL,7.01 µg/mL,0.05 µg/mL,0.39 µg/mL,> 25 µg/mL,0.97 µg/mL,< 0.01 µg/mL,> 1 µg/mL,> 1 µg/mL,0.002 µg/mL,0.005 µg/mL,17.7 µg/mL,7.52 µg/mL,< 0.01 µg/mL,< 0.01 µg/mL,< 0.01 µg/mL,< 0.01 µg/mL,0.005 µg/mL
"1489_I13 (PG16) (TCN-120) (antibody, V domains shown) VH: QEQLLESGGGVVQPGGSLRLSCLASGFTFHKYGMHWVRQAPGKGLEWVALISDDGMRKYHSNSMWGRVTISRDNSKNTLYLQFSSLKVEDTAMFFCAREAGGPIWHDDVKYYDFNDGYYNYHYMDVWGKGTTVTVSS VL: QSALTQPASVSGSPGQTITISCNGTSSDVGGFDSVSWYQQSPGKAPKVMVFDVSHRPSGISNRFSGSKSGNTASLTISGLHIEDEGDYFCSSLTDRSHRIFGGGTKVTVLG",> 25 µg/mL,< 0.01 µg/mL,20.6 µg/mL,7.41 µg/mL,0.03 µg/mL,0.34 µg/mL,> 25 µg/mL,1.87 µg/mL,< 0.01 µg/mL,> 1 µg/mL,> 1 µg/mL,0.002 µg/mL,0.005 µg/mL,24.9 µg/mL,10.9 µg/mL,< 0.01 µg/mL,< 0.01 µg/mL,< 0.01 µg/mL,< 0.01 µg/mL,0.008 µg/mL
